Data on one protein can be found in article PMC6506517, “Structure of Mycobacterium tuberculosis phosphatidylinositol phosphate synthase reveals mechanism of substrate binding and metal catalysis” (Communications Biology, 2019).

The series deals with the molecule itself. The experiment in a line: crystal structure.

B1: Mycobacterium tuberculosis phosphatidylinositol phosphate synthase (PgsA1) (enzyme)
chain: MSKLPFLSRAAFARITTPIARGLLRVGLTPDVVTILGTTASVAGALTLFPMGKLFAGACVVWFFVLFDMLDGAMARERGGGTRFGAVLDATCDRISDGAVFCGLLWWIAFHMRDRPLVIATLICLVTSQVISYIKARAEASGLRGDGGFIERPERLIIVLTGAGVSDFPFVPWPPALSVGMWLLAVASVITCVQRLHTVWTSPGAIDRMAIPGKGDRENLYFQ
notes: also called M. tuberculosis PgsA1; Rv2612c
As to B1, the binding result is listed as “binds”.
